Measurements published in the nanobody polyreactivity screen of Harvey et al. (2022).

Experiment: yeast display, Sf9 membrane polyspecificity reagent, FACS + sequencing; frameworks hold sequencing errors
How it was run: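 Galactose-induced (36–48 hours) yeast carrying a synthetic nanobody display library were exposed to 10% biotinylated, detergent-solubilized Sf9 membrane reagent at 4 °C for 1 hour. FACS followed streptavidin microbead enrichment, using low and high (top ~1%) gates for expression (anti-HA) and reagent binding (streptavidin). Colony PCR, MiSeq 2 × 250 sequencing and CDR-length filtering followed. Labels for polyreactivity reflect the gate of origin.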

Sequence	polyreactivity (PSR sort gate)
QVQLVESGGGLVQAGGSLRLSCAASGRIFGSYAMGWYRQAPWKERELVAAINWRGGSTFYADSVKGRFTISRDNAKNTVYLLMNSLKPEDTAVYYCARSGYRQSGDYWGQGTQVTVSS	low polyreactivity
QVQLVESGGGLVQAGGSLRLSCAASGRIFGSYVMGWYRQAPGKEMELVATISWSGGSTYYADSVKGRFTISRDNAKNTVYLQMNSLKPEDTAVYYCAAVSRYSHSPYHYDYWGQGTQVTVSS	high polyreactivity
QVQLVESGGGLVQAGGSLRLSCAASGRIFGSYVMGWYRQAPGKERELVAAISRRGGSTYYADSVKGRFTISRDNAKNTVYLQMNSLKPEDTAVDYCAAEFSPSSNPYDYWGQGTQVTVSS	high polyreactivity
QVQLVESGGGLVQAGGSLRLSCAASGRIFGTNAMGWYRQAPGKERELVAAISRSGGSTYYADSVKGRFTISRDNSKNTVYLQMNSLKPEDTAVYYCATDGRHTYYYWGQGTQVTVSS	high polyreactivity
QVQLVESGGGLVQAGGSLRLSCAASGRIFGTNAMGWYRQAPGKERELVATITRGGGNTYYADSVKGRFTISRDNAKNTVYLQMNSLKPEDTAVYYCAAKFHRFAWYSHYDYWGQGTQVTVSS	low polyreactivity
QVQLVESGGGLVQAGGSLRLSCAASGRIFGTNAMGWYRQAPGKERELVATITRGGGNTYYADSVKGRFTISRDNAKNTVYLQMNSLKPEDTAVYYCAAYDSVQKYWILGFDYWGQGTQVTVSS	low polyreactivity
QVQLVESGGGLVQAGGSLRLSCAASGRIFGTNSIGWYIQAPRKERELVSAISSSTSTNYADSVKGRFTISRDNAKNTVYLLMYSLKRDDTAFYYFDADELRTDWDYAQGYDYWGQGTQVTVSS	low polyreactivity
QVQLVESGGGLVQAGGSLRLSCAASGRIFGTYAMGWYRQAPGKERELVAAITQSGGRTYYADSVKGRFTISRDNAKNTVYLQMNSLKPEDTAVYYCNKVTYRGIGLGYDYWGQGTQVTVSS	high polyreactivity
QVQLVESGGGLVQAGGSLRLSCAASGRIFGVNAMGRYRQAPGKERELVAAIDWSDGSTYYADSVKGRFTISRDNAKNTVYLQMNSLKPEDTAVYYCAALPSFLAAQYGDDYWGQGTQVTVSS	low polyreactivity
QVQLVESGGGLVQAGGSLRLSCAASGRIFGVNAMGWYRQAPGKERELVAAIRYSGGSTYYADSVKGRFTISRDNAKNTVYLQMNSLKPEDTAVYYCAKARYTYSWSFGYWGQGTQVTVSS	low polyreactivity
QVQLVESGGGLVQAGGSLRLSCAASGRIFGVYAMGLYRQAPGKERELVAGITYSGGSTYYADSVKGRFTISRDNAKNTVYLQMNSLKPEDTAVYYCARYHWYYRVSKSDSWGQGTQVTVSS	high polyreactivity
QVQLVESGGGLVQAGGSLRLSCAASGRIFGVYAMGWYRQAPGKEREFVASITRGGGRTYYADSVKGRFTISRDNAKNTVYLQMNSLKPEDTAVYYCNAVVNSYPYYYWGQGTQVTVSS	high polyreactivity
QVQLVESGGGLVQAGGSLRLSCAASGRIFGVYAMGWYRQAPGKERELVAAISEGGGSTNYADSVKGRFSISRDNAKNTVYLQMNSLKPEDTAVYYCAATYRTGVRRYYSWGQGTQVTVSS	low polyreactivity
QVQLVESGGGLVQAGGSLRLSCAASGRIFGVYAMGWYRQAPGKERELVAAITYRGASTYADSVKGRFTISRDNAKNTVYLQMNSLNPEDTAVYYCAAEPGSRSYGGDYWGQGTQVTVSS	high polyreactivity
QVQLVESGGGLVQAGGSLRLSCAASGRIFGWNAMGWYRQAPGKERELVASIRSGGRTNYADSVKGRFTISRDNAKNTVYLQMNSLKPEDTAVYYCAVGPYYQSTQIYDYWGQGTQVTVSS	low polyreactivity
QVQLVESGGGLVQAGGSLRLSCAASGRIFGWNAMGWYRQAPGKERELVATITDGTSTNYADSVKGRFTISRDNAKNTVYLQMYSLKPVDTAVYYCAKRVVTSLYKPDGVKYDYWGQGTQVTVSS	high polyreactivity
QVQLVESGGGLVQAGGSLRLSCAASGRIFGWYAMGGYRQAPGKERELVAAITSGGRTKYADSVKGRLTISRDNAKNTVYLQMNSLKPEDTAVYYCAARPQISSFDGLYYWGQGTQVTVSS	high polyreactivity
QVQLVESGGGLVQAGGSLRLSCAASGRIFGWYAMGWYRQAPGKERELVAAISWSGGSTYADSVKGRFTISRDNAKNTVYLQMNSLKPEDTAVYYCAADVAYVEYDYWGQGTQVTVSS	low polyreactivity
QVQLVESGGGLVQAGGSLRLSCAASGRIFGYAMGWCRQAPRKERELVAAITSSGGRTYYADSVKGRFTISRDNAKNTVYLQMNSLKPEDTAVYYCAKKWPVYRSYDYWGQGTQVTVSS	high polyreactivity
QVQLVESGGGLVQAGGSLRLSCAASGRIFGYNAMGWYRQAPGKERELVAAISSSGGSTYYADSVKGRFTISRDNAKNTVYLQMNSLKPEDTAVYYCAARRVTRTTVYRYQYYYWGQGTQVTVSS	high polyreactivity
QVQLVESGGGLVQAGGSLRLSCAASGRIFGYNAMGWYRQAPGKERELVAAITQSGGTTYYADSVKGRFTISRDYAKNTVYLQMNSLKPEDTAVYYCARGTRYPNNPFDYWGLGTQVTVSS	high polyreactivity
QVQLVESGGGLVQAGGSLRLSCAASGRIFGYNAMGWYRQAPGKERELVAALSWNGGSTYYADSVKGRFTISRDNAKNTVYLQMNSLKPEDTAVYYCNADPSDRRYPHTWTKMGYWGQGTQVTVSS	low polyreactivity

Sequence	polyreactivity (PSR sort gate)
QVQLVESGGGLVQAGGSLRLSCAASGRIFGYNTMGWYRQAPGNERELVATITGAGSTNYADSVKGLFTISRDNAKNTVYLQMNSLKPEDTAVYYCAASVRWPRVSQRARYGYYYWGQGTQVTVSS	high polyreactivity
QVQLVESGGGLVQAGGSLRLSCAASGRIFGYTMGWYRQAPGKERELVAAISKSGGSTYYADSVKGRFTISRDNAKNTVYLQMNSLIPEDTAVYVCNKPQRILYDYWGQGSQVTVSS	high polyreactivity
QVQLVESGGGLVQAGGSLRLSCAASGRIFGYTMGWYRQAPGKERELVAAISKSGGSTYYADSVKGRFTISRDNAKNTVYLQMNSLKPEDTAVYYCNKPQRILYDYWGQGTQVTVSS	high polyreactivity
QVQLVESGGGLVQAGGSLRLSCAASGRIFGYYALGLSRQAPGKERELVAAINSGSRTYYADSVKGRFTISRDNAKNTVYLQMNSLKPEDTAVYYCAKVGRGNNYWGQGTQVTVSS	high polyreactivity
QVQLVESGGGLVQAGGSLRLSCAASGRIFGYYAMEWNRQAPGKERELVATITFGGGSTYYADSVKGRFTISRDKAKNTVYLQMNSLKPEDTAVSFCAAEGVHYDGDYGTGYDYWGQCTQVTVSS	low polyreactivity
QVQLVESGGGLVQAGGSLRLSCAASGRIFGYYAMGWSRPAPGKERELVATITFGGVSTYYADSVKGRFTISRDNAKNNVYLQMNSLKPEDTGVYYCAADSGYLGIYGDEYSWGQGTQVTVSS	low polyreactivity
QVQLVESGGGLVQAGGSLRLSCAASGRIFGYYAMGWYRQAPGKERELVAAIDSSGGSTTYADSVKGRFTISRDYAKNTVYLQMNSLKPEDTAVYYCNAGYALRSGPWYYYELDYWGQGTQVTVSS	low polyreactivity
QVQLVESGGGLVQAGGSLRLSCAASGRIFGYYAMGWYRQAPGKERELVATIRGGGSTNYADSVKGRCTISRDNAKNTVFLQMNSLKPEDTAVYYCAKPCAKWRGFDYWGQGTQVTVSS	low polyreactivity
QVQLVESGGGLVQAGGSLRLSCAASGRIFGYYAMGWYRQAPGKEREWVAAINSGGSTNYADSVKGRFTISRDNAKNTVYLQMNSLIPEDTAVYYCAAGWRYRYFRSRNFYPYYYWGQGTQVTVSS	high polyreactivity
QVQLVESGGGLVQAGGSLRLSCAASGRIFGYYAMGWYRQAPGKEREWVAAMSTNGGTTYYAYSVKGRFTISRDNAKNTVYLQMNSLKPEDTAVYYCAATYTVPGHARYDYWGQGTQVTVSS	low polyreactivity
QVQLVESGGGLVQAGGSLRLSCAASGRIFGYYGMGWYRQAPGNERELVAAITYRGGSTYYADSVKGRFTISRDNAKNTVYLQMNSLKPEDTVVYYCGADGYSNYRYLYDYWGQGTQVTVSS	low polyreactivity
QVQLVESGGGLVQAGGSLRLSCAASGRIFGYYMGWYRQAPGKERELVARITFRGGSTYYADSVKGRFTISRDNAKNTVYLQMNSLKPEDTAVYYCNASGKGGSTNRSDYWGQGTQVTVSW	high polyreactivity
QVQLVESGGGLVQAGGSLRLSCAASGRIFGYYTMGWYRQAPGKERELVAAITRDGGSTYYADSVKGRFTISRDNAKNTVYLQMNSLKPEDTAVDYCTAASQSRYYYWGQGTQVTVSS	high polyreactivity
QVQLVESGGGLVQAGGSLRLSCAASGRIFGYYTMGWYRQAPGKEWEVVAGISSGGSTNYADSVKGRFTISRDNAKNTVYLQMNSLKPEDTAVYDCAAAYPHFGGYRYDYWGQGTQVTVSS	high polyreactivity
QVQLVESGGGLVQAGGSLRLSCAASGRIFHFNTMGWYRQAPGKERELVAAITSSGGSTNYADSVKGRFTISRDNAKNTVYLQMNSLKPEDTAVYYCNADTGAADYFDFDYWGQGTQVTVSS	low polyreactivity
QVQLVESGGGLVQAGGSLRLSCAASGRIFHLYAMGWYRQAPGKERELVATINYEGGSTYYADSVKGRFTISRDNAKDTVYLQMNSLKPEDTAVYYCAADGYQDKYYWLETWVGYWGQGTQVTVSS	low polyreactivity
QVQLVESGGGLVQAGGSLRLSCAASGRIFHPNAMGWYRQAPGKERELVAAITNSGGITYADSVKGRFTISRDNAKNTVYLQMNSLKPEDTAVYYCNTATNRFHYKYRKPYDYWGQGTQVTVSS	low polyreactivity
QVQLVESGGGLVQAGGSLRLSCAASGRIFHQYAMGWYRQAPGKERELVAAITGGGSTYYADSVKGRFTISRDNAKNTVSLQMNSLKPEDTAVYYCAAPPFGYYEVGYDSWGQGTQVTVSS	low polyreactivity
QVQLVESGGGLVQAGGSLRLSCAASGRIFHRYDMGWDRQAPGKEREFVAAISSRGGSTYYADSVKGRVTISRDYAKNTVYLQMNSLKPEDTAVYYCAAQNGYRSGEFYYWGQGTQVTVSP	high polyreactivity
QVQLVESGGGLVQAGGSLRLSCAASGRIFHTYGMGWYRQAPGKERELVAAITWTGGSTYYADSVKGRFTISRDNAKNTVYLQMNSLKPEDTAVYYCAADYPRDIIGSMDYWGQGTQVTVSS	low polyreactivity
QVQLVESGGGLVQAGGSLRLSCAASGRIFHTYGMGWYRQAPGKVRELVAAITWTGGSTYYADSVKGRFTISRDNAKNTVYLQMNSLKPEDTAVYYCNARYVYHSSFAGFDYWGQGTQVTVSS	low polyreactivity
